Measured values: the supplement of paper PMC9112550, “Optimization of the antimicrobial peptide Bac7 by deep mutational scanning” (BMC Biology, 2022)

Test system: Escherichia coli TOP10
Test: shrunken log2 fold change of peptide-encoding DNA abundance (4.5 h post-induction vs induction); higher = less antimicrobial activity (less host growth inhibition)
Conditions: time post-induction: 4.5 h; library: site-saturation at positions 5, 18, 19, 20
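Also: peptides expressed intracellularly from a pBAD plasmid library in pooled LB shake-flask culture, induced with 0.3% L-arabinose, DNA abundance read by NGS, three biological replicates, DESeq2 with apeglm shrinkage.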

## RRIRTRPPRLPRPRPRPDANPRP
  shrunken log2 fold change: -0.103

## RRIRTRPPRLPRPRPRPDAPPRP
  shrunken log2 fold change: 0.215

## RRIRTRPPRLPRPRPRPDCVPRP
  shrunken log2 fold change: -0.128

## RRIRTRPPRLPRPRPRPDDLPRP
  shrunken log2 fold change: 0.0162

## RRIRTRPPRLPRPRPRPDEDPRP
  shrunken log2 fold change: 0.0169

## RRIRTRPPRLPRPRPRPDERPRP
  shrunken log2 fold change: -0.146

## RRIRTRPPRLPRPRPRPDFKPRP
  shrunken log2 fold change: -0.172

## RRIRTRPPRLPRPRPRPDGAPRP
  shrunken log2 fold change: 0.132

## RRIRTRPPRLPRPRPRPDGFPRP
  shrunken log2 fold change: -0.0487

## RRIRTRPPRLPRPRPRPDHQPRP
  shrunken log2 fold change: -0.0261

## RRIRTRPPRLPRPRPRPDIEPRP
  shrunken log2 fold change: -0.117

## RRIRTRPPRLPRPRPRPDIPPRP
  shrunken log2 fold change: -0.0961

## RRIRTRPPRLPRPRPRPDIQPRP
  shrunken log2 fold change: -0.531

## RRIRTRPPRLPRPRPRPDKDPRP
  shrunken log2 fold change: -0.0511

## RRIRTRPPRLPRPRPRPDKPPRP
  shrunken log2 fold change: 0.0877

## RRIRTRPPRLPRPRPRPDLDPRP
  shrunken log2 fold change: 0.145

## RRIRTRPPRLPRPRPRPDLSPRP
  shrunken log2 fold change: 0.057

## RRIRTRPPRLPRPRPRPDLTPRP
  shrunken log2 fold change: 0.129

## RRIRTRPPRLPRPRPRPDLYPRP
  shrunken log2 fold change: 0.0261

## RRIRTRPPRLPRPRPRPDMTPRP
  shrunken log2 fold change: -0.0206

## RRIRTRPPRLPRPRPRPDPCPRP
  shrunken log2 fold change: 0.0297

## RRIRTRPPRLPRPRPRPDPRPRP
  shrunken log2 fold change: 0.0663

## RRIRTRPPRLPRPRPRPDQGPRP
  shrunken log2 fold change: 0.23

## RRIRTRPPRLPRPRPRPDRRPRP
  shrunken log2 fold change: 0.0647

## RRIRTRPPRLPRPRPRPDSGPRP
  shrunken log2 fold change: -0.0764

## RRIRTRPPRLPRPRPRPDSPPRP
  shrunken log2 fold change: -0.549

## RRIRTRPPRLPRPRPRPDSYPRP
  shrunken log2 fold change: -0.0896

## RRIRTRPPRLPRPRPRPDTSPRP
  shrunken log2 fold change: -0.324

## RRIRTRPPRLPRPRPRPDVMPRP
  shrunken log2 fold change: -0.00136

## RRIRTRPPRLPRPRPRPDVTPRP
  shrunken log2 fold change: -0.06

## RRIRTRPPRLPRPRPRPDWAPRP
  shrunken log2 fold change: 0.327

## RRIRTRPPRLPRPRPRPDYVPRP
  shrunken log2 fold change: -0.0882

## RRIRTRPPRLPRPRPRPEDLPRP
  shrunken log2 fold change: 0.0657

## RRIRTRPPRLPRPRPRPEELPRP
  shrunken log2 fold change: 0.0343

## RRIRTRPPRLPRPRPRPEERPRP
  shrunken log2 fold change: 0.12

## RRIRTRPPRLPRPRPRPEGFPRP
  shrunken log2 fold change: -0.041

## RRIRTRPPRLPRPRPRPEGIPRP
  shrunken log2 fold change: 0.0215

## RRIRTRPPRLPRPRPRPEGNPRP
  shrunken log2 fold change: -0.311

## RRIRTRPPRLPRPRPRPEHVPRP
  shrunken log2 fold change: 0.0823

## RRIRTRPPRLPRPRPRPEIKPRP
  shrunken log2 fold change: -0.0117

## RRIRTRPPRLPRPRPRPEKFPRP
  shrunken log2 fold change: -0.376

## RRIRTRPPRLPRPRPRPEKHPRP
  shrunken log2 fold change: 0.0385

## RRIRTRPPRLPRPRPRPEKPPRP
  shrunken log2 fold change: 0.0634

## RRIRTRPPRLPRPRPRPELCPRP
  shrunken log2 fold change: -0.101

## RRIRTRPPRLPRPRPRPEPEPRP
  shrunken log2 fold change: 0.323

## RRIRTRPPRLPRPRPRPEQAPRP
  shrunken log2 fold change: 0.173

## RRIRTRPPRLPRPRPRPEQGPRP
  shrunken log2 fold change: 0.196

## RRIRTRPPRLPRPRPRPESDPRP
  shrunken log2 fold change: -0.0712

## RRIRTRPPRLPRPRPRPEYAPRP
  shrunken log2 fold change: -0.00931

## RRIRTRPPRLPRPRPRPEYDPRP
  shrunken log2 fold change: -0.0227

## RRIRTRPPRLPRPRPRPEYEPRP
  shrunken log2 fold change: -0.0445

## RRIRTRPPRLPRPRPRPFAPPRP
  shrunken log2 fold change: 0.163

## RRIRTRPPRLPRPRPRPFCQPRP
  shrunken log2 fold change: 0.101

## RRIRTRPPRLPRPRPRPFHAPRP
  shrunken log2 fold change: -0.0296

## RRIRTRPPRLPRPRPRPFHDPRP
  shrunken log2 fold change: 0.0356

## RRIRTRPPRLPRPRPRPFKEPRP
  shrunken log2 fold change: -0.125

## RRIRTRPPRLPRPRPRPFKIPRP
  shrunken log2 fold change: -0.0514

## RRIRTRPPRLPRPRPRPFLKPRP
  shrunken log2 fold change: 0.092

## RRIRTRPPRLPRPRPRPFNWPRP
  shrunken log2 fold change: -0.22

## RRIRTRPPRLPRPRPRPFPYPRP
  shrunken log2 fold change: -0.00797

## RRIRTRPPRLPRPRPRPFRWPRP
  shrunken log2 fold change: 0.24

## RRIRTRPPRLPRPRPRPFTFPRP
  shrunken log2 fold change: -0.187

## RRIRTRPPRLPRPRPRPFTHPRP
  shrunken log2 fold change: -0.174

## RRIRTRPPRLPRPRPRPFVMPRP
  shrunken log2 fold change: -0.277

## RRIRTRPPRLPRPRPRPFWKPRP
  shrunken log2 fold change: 0.0184

## RRIRTRPPRLPRPRPRPFWSPRP
  shrunken log2 fold change: -0.178

## RRIRTRPPRLPRPRPRPFWWPRP
  shrunken log2 fold change: 0.299

## RRIRTRPPRLPRPRPRPFYCPRP
  shrunken log2 fold change: -0.505

## RRIRTRPPRLPRPRPRPGALPRP
  shrunken log2 fold change: 0.00437

## RRIRTRPPRLPRPRPRPGCPPRP
  shrunken log2 fold change: 0.086

## RRIRTRPPRLPRPRPRPGDNPRP
  shrunken log2 fold change: -0.00277

## RRIRTRPPRLPRPRPRPGESPRP
  shrunken log2 fold change: -0.012

## RRIRTRPPRLPRPRPRPGFFPRP
  shrunken log2 fold change: 0.147

## RRIRTRPPRLPRPRPRPGGKPRP
  shrunken log2 fold change: -0.215

## RRIRTRPPRLPRPRPRPGHMPRP
  shrunken log2 fold change: -0.233

## RRIRTRPPRLPRPRPRPGHWPRP
  shrunken log2 fold change: 0.0708

## RRIRTRPPRLPRPRPRPGIGPRP
  shrunken log2 fold change: 0.17

## RRIRTRPPRLPRPRPRPGISPRP
  shrunken log2 fold change: 0.0832

## RRIRTRPPRLPRPRPRPGLQPRP
  shrunken log2 fold change: -0.138

## RRIRTRPPRLPRPRPRPGMCPRP
  shrunken log2 fold change: -0.139

## RRIRTRPPRLPRPRPRPGMGPRP
  shrunken log2 fold change: 0.104

## RRIRTRPPRLPRPRPRPGMIPRP
  shrunken log2 fold change: -0.0261

## RRIRTRPPRLPRPRPRPGMKPRP
  shrunken log2 fold change: -0.0344

## RRIRTRPPRLPRPRPRPGNWPRP
  shrunken log2 fold change: 0.275

## RRIRTRPPRLPRPRPRPGQLPRP
  shrunken log2 fold change: 0.226

## RRIRTRPPRLPRPRPRPGQYPRP
  shrunken log2 fold change: -0.286

## RRIRTRPPRLPRPRPRPGRLPRP
  shrunken log2 fold change: 0.171

## RRIRTRPPRLPRPRPRPGSAPRP
  shrunken log2 fold change: 0.362

## RRIRTRPPRLPRPRPRPGSSPRP
  shrunken log2 fold change: -0.209

## RRIRTRPPRLPRPRPRPGTRPRP
  shrunken log2 fold change: 0.2

## RRIRTRPPRLPRPRPRPGVCPRP
  shrunken log2 fold change: 0.442

## RRIRTRPPRLPRPRPRPGYFPRP
  shrunken log2 fold change: -0.0719

## RRIRTRPPRLPRPRPRPGYMPRP
  shrunken log2 fold change: -0.297

## RRIRTRPPRLPRPRPRPHAPPRP
  shrunken log2 fold change: -0.046

## RRIRTRPPRLPRPRPRPHATPRP
  shrunken log2 fold change: -0.0102

## RRIRTRPPRLPRPRPRPHCAPRP
  shrunken log2 fold change: -0.0401

## RRIRTRPPRLPRPRPRPHCQPRP
  shrunken log2 fold change: -0.359

## RRIRTRPPRLPRPRPRPHDKPRP
  shrunken log2 fold change: -0.51

## RRIRTRPPRLPRPRPRPHGEPRP
  shrunken log2 fold change: 0.16

## RRIRTRPPRLPRPRPRPHHRPRP
  shrunken log2 fold change: -0.655

## RRIRTRPPRLPRPRPRPHHSPRP
  shrunken log2 fold change: -0.133

## RRIRTRPPRLPRPRPRPHIAPRP
  shrunken log2 fold change: -0.348

## RRIRTRPPRLPRPRPRPHIDPRP
  shrunken log2 fold change: -0.0151

## RRIRTRPPRLPRPRPRPHIMPRP
  shrunken log2 fold change: -0.738

## RRIRTRPPRLPRPRPRPHLHPRP
  shrunken log2 fold change: -0.844

## RRIRTRPPRLPRPRPRPHLQPRP
  shrunken log2 fold change: -0.321

## RRIRTRPPRLPRPRPRPHPMPRP
  shrunken log2 fold change: -0.167

## RRIRTRPPRLPRPRPRPHPSPRP
  shrunken log2 fold change: 0.00449

## RRIRTRPPRLPRPRPRPHQPPRP
  shrunken log2 fold change: -0.0196

## RRIRTRPPRLPRPRPRPHREPRP
  shrunken log2 fold change: -0.075

## RRIRTRPPRLPRPRPRPHRVPRP
  shrunken log2 fold change: 0.0498

## RRIRTRPPRLPRPRPRPHTSPRP
  shrunken log2 fold change: -0.301

## RRIRTRPPRLPRPRPRPHVIPRP
  shrunken log2 fold change: -0.192

## RRIRTRPPRLPRPRPRPHVSPRP
  shrunken log2 fold change: -0.287

## RRIRTRPPRLPRPRPRPHWMPRP
  shrunken log2 fold change: -0.243

## RRIRTRPPRLPRPRPRPHWSPRP
  shrunken log2 fold change: -0.147

## RRIRTRPPRLPRPRPRPHWVPRP
  shrunken log2 fold change: 0.381

## RRIRTRPPRLPRPRPRPHYKPRP
  shrunken log2 fold change: -0.531

## RRIRTRPPRLPRPRPRPIACPRP
  shrunken log2 fold change: -0.0974

## RRIRTRPPRLPRPRPRPICAPRP
  shrunken log2 fold change: 0.0827

## RRIRTRPPRLPRPRPRPICNPRP
  shrunken log2 fold change: -0.00195

## RRIRTRPPRLPRPRPRPIDAPRP
  shrunken log2 fold change: -0.0859

## RRIRTRPPRLPRPRPRPIESPRP
  shrunken log2 fold change: 0.0133

## RRIRTRPPRLPRPRPRPIGFPRP
  shrunken log2 fold change: -0.0989

## RRIRTRPPRLPRPRPRPIGTPRP
  shrunken log2 fold change: 0.0179

## RRIRTRPPRLPRPRPRPIGYPRP
  shrunken log2 fold change: -0.0183

## RRIRTRPPRLPRPRPRPIHMPRP
  shrunken log2 fold change: -0.171

## RRIRTRPPRLPRPRPRPIIFPRP
  shrunken log2 fold change: -0.0206

## RRIRTRPPRLPRPRPRPIIGPRP
  shrunken log2 fold change: 0.0211

## RRIRTRPPRLPRPRPRPIILPRP
  shrunken log2 fold change: -0.25

## RRIRTRPPRLPRPRPRPIIPPRP
  shrunken log2 fold change: -0.279

## RRIRTRPPRLPRPRPRPIISPRP
  shrunken log2 fold change: -0.0891

## RRIRTRPPRLPRPRPRPIKWPRP
  shrunken log2 fold change: 0.0186

## RRIRTRPPRLPRPRPRPINKPRP
  shrunken log2 fold change: -0.322

## RRIRTRPPRLPRPRPRPIQPPRP
  shrunken log2 fold change: 0.00206

## RRIRTRPPRLPRPRPRPIRTPRP
  shrunken log2 fold change: 0.063

## RRIRTRPPRLPRPRPRPISKPRP
  shrunken log2 fold change: -0.17

## RRIRTRPPRLPRPRPRPISNPRP
  shrunken log2 fold change: -0.576

## RRIRTRPPRLPRPRPRPITAPRP
  shrunken log2 fold change: -0.0416

## RRIRTRPPRLPRPRPRPIVPPRP
  shrunken log2 fold change: -0.229

## RRIRTRPPRLPRPRPRPIWTPRP
  shrunken log2 fold change: 0.00694

## RRIRTRPPRLPRPRPRPIYCPRP
  shrunken log2 fold change: -0.233

## RRIRTRPPRLPRPRPRPKAAPRP
  shrunken log2 fold change: 0.565

## RRIRTRPPRLPRPRPRPKALPRP
  shrunken log2 fold change: 0.293

## RRIRTRPPRLPRPRPRPKAVPRP
  shrunken log2 fold change: 0.26

## RRIRTRPPRLPRPRPRPKCAPRP
  shrunken log2 fold change: 0.909

## RRIRTRPPRLPRPRPRPKCRPRP
  shrunken log2 fold change: 0.0762

## RRIRTRPPRLPRPRPRPKCVPRP
  shrunken log2 fold change: -0.138

## RRIRTRPPRLPRPRPRPKDCPRP
  shrunken log2 fold change: 0.0164

## RRIRTRPPRLPRPRPRPKFNPRP
  shrunken log2 fold change: -0.375
